From paper PMC3583217, “Novel HER2 Aptamer Selectively Delivers Cytotoxic Drug to HER2-positive Breast Cancer Cells in Vitro” come the findings set out here.

The target of the data set is HER2 extracellular domain (ECD) (UniProt P04626 23-652). The data set is described as follows: flow cytometry on protein-coated beads; random-library background subtracted; Hanks buffer (SELEX binding buffer with 0.1 mg/mL salmon sperm DNA and 1 mg/mL BSA), 37 C, 30 min; pH not stated; aptamer pool heated 95 C 5 min then iced in SELEX. Conditions: protein: commercial; tags: covalently coupled to magnetic beads; label: FITC (5' via primer P1 in SELEX).

B1: HB5 (ssDNA)
DNA: AACCGCCCAAATCCCTAAGAGTCTGCACTTGTCATTTTGTATATGTATTTGGTTTTTGGCTCTCACAGACACACTACACACGCACA
For B1, the Kd (commonly the constant that tells how readily two partners part at equilibrium) came out at 316 nM.
